By Kd is commonly meant the concentration at which binding is half-saturated. Low readings indicate a tighter complex, high ones a looser complex.

Several values for one entry are separate records, joined by “and”; a condition that tells them apart may be missing. Equal entries are not always repeated.

The assay deals with IgG-CD4 protein (fusion protein of human CD4 domains 1 and 2 with human IgG1 Fc at the C terminus) (human). Briefly: BLI; Octet QKe; IgG-CD4 loaded onto protein G sensors at 20 ug/ml in ForteBio kinetics buffer; serial dilutions of gp120 (600 nM to 0.4 nM) in solution; Kd = koff/kon, 1:1 fitting model; two GMP lots of each gp120. As to conditions: both partners purified.

B1: GMP-grade gp120 protein, HIV-1 clade A isolate 92UG037.8 (natural protein)
chain: not shown
As for B1, the equilibrium dissociation constant (Kd) was 5.48 nM and 3.62 nM.

These data come from PMC7081908, “Glycan Profiles of gp120 Protein Vaccines from Four Major HIV-1 Subtypes Produced from Different Host Cell Lines under Non-GMP or GMP Conditions” (Journal of Virology, 2020).
